According to US20260042854A1, “ANTI-GLP-1R ANTIBODIES AND USES THEREOF” (SCIWIND BIOSCIENCES USA CO., LTD, priority 2022, published 2026):

Tests used:
[1] = target: hGLP-1R on the cell membrane (HEK293 cells overexpressing hGLP-1R) (human) (UniProt P43220); test: cell-based or functional assay
[2] = target: monkey GLP-1R (JN033215.1) on HEK293 cells (monkey); test: cell-based or functional assay

hGLP-1R on the cell membrane (HEK293 cells overexpressing hGLP-1R) (human), sequence (P43220 24-463): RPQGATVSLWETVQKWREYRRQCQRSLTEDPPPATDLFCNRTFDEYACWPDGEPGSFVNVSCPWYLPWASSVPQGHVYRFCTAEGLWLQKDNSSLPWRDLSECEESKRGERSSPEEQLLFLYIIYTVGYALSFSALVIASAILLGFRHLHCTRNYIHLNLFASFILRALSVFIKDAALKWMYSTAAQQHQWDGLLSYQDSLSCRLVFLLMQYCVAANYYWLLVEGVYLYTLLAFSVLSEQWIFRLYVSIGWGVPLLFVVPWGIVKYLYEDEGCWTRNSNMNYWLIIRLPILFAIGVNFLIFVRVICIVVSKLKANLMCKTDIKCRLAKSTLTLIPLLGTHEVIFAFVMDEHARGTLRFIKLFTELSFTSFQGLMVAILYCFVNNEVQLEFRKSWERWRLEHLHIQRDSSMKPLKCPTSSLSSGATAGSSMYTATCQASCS

IC50, inhibition of GLP-1 (2.5 ng/ml) activity in hGLP-1R-CRE-Luciferase-HEK293 reporter gene assay [1]: 17.2 nM
IC50, inhibition of GLP-1 (2.5 ng/mL) activity in monkey GLP-1R-CRE-Luciferase-HEK293 reporter gene assay [2]: 13.8 nM
B1: P16891 (antibody, human IgG4 S228P, kappa)
heavy: QVQLVQSGAEMKKPGASVKVSCKTSGYRFSTYVISWVRQTPGQGLEWMGWISPYTGDIDYAQKFQGRVTITADESTSTAYMELSRLRSDDTAVYYCAREREGYNFPGMDVWGQGTTVTVSSASTKGPSVFPLAPCSRSTSESTAALGCLVKDYFPEPVTVSWNSGALTSGVHTFPAVLQSSGLYSLSSVVTVPSSSLGTKTYTCNVDHKPSNTKVDKRVESKYGPPCPPCPAPEFLGGPSVFLFPPKPKDTLYITREPEVTCVVVDVSQEDPEVQFNWYVDGVEVHNAKTKPREEQFNSTYRVVSVLTVLHQDWLNGKEYKCKVSNKGLPSSIEKTISKAKGQPREPQVYTLPPSQEEMTKNQVSLTCLVKGFYPSDIAVEWESNGQPENNYKTTPPVLDSDGSFFLYSRLTVDKSRWQEGNVFSCSVMHEALHNHYTQKSLSLSLGK
light: DIQLTQSPSFLSASVGDRVTITCRASQGISSYLAWYQQKPGRAPKLLIYSASTLQRGVPSRFSGSGSGTDFTLTISSLQPEDYATYYCQQAESFPPSFGPGTKVDIKRTVAAPSVFIFPPSDEQLKSGTASVVCLLNNFYPREAKVQWKVDNALQSGNSQESVTEQDSKDSTYSLSSTLTLSKADYEKHKVYACEVTHQGLSSPVTKSFNRGEC
